# Experimental data taken from PMC7782693, “Structural insights into photoactivation of plant Cryptochrome-2” (Communications Biology, 2021).
# Experiments:
# [1] = molecular target: the molecule itself; test: SEC; Superdex-200 gel filtration, 20 mM Tris pH 8.0, 200 mM NaCl, 2 mM DTT, 4% glycerol; molecular weights estimated against standards
# [2] = molecular target: the molecule itself; test: crystal structure; hanging-drop vapor diffusion at 25 °C under continuous full-spectrum white light (40 μmol m^2 s^-1); 1.5 M sodium nitrate, 0.1 M BIS-TRIS propane pH 7.0; tetramer of four monomers A-D
protein,measurement,setting,value
"Arabidopsis CRY2 photolyase homologous region (PHR) domain (domain or fragment, Arabidopsis thaliana, UniProt Q96524 1-498, looked up, Cryptochrome-2 (CRY2), Arabidopsis thaliana, PHR domain, residues 1-498, wild type; Expressed as a GST fusion from the pFastbac-GST vector; GST removed by TEV protease on the column; The crystal holds four copies (monomers A-D); in solution mostly monomer; also called AtCRY2-PHR; CRY2-PHR) MKMDKKTIVWFRRDLRIEDNPALAAAAHEGSVFPVFIWCPEEEGQFYPGRASRWWMKQSLAHLSQSLKALGSDLTLIKTHNTISAILDCIRVTGATKVVFNHLYDPVSLVRDHTVKEKLVERGISVQSYNGDLLYEPWEIYCEKGKPFTSFNSYWKKCLDMSIESVMLPPPWRLMPITAAAEAIWACSIEELGLENEAEKPSNALLTRAWSPGWSNADKLLNEFIEKQLIDYAKNSKKVVGNSTSLLSPYLHFGEISVRHVFQCARMKQIIWARDKNSEGEESADLFLRGIGLREYSRYICFNFPFTHEQSLLSHLRFFPWDADVDKFKAWRQGRTGYPLVDAGMRELWATGWMHNRIRVIVSSFAVKFLLLPWKWGMKYFWDTLLDADLECDILGWQYISGSIPDGHELDRLDNPALQGAKYDPEGEYIRQWLPELARLPTEWIHHPWDAPLTVLKASGVELGTNYAKPIVDIDTARELLAKAISRTREAQIMIGAA",stoichiometry N,[1],2
same,stoichiometry N,[2],4
